Test results as given in patent US20230250154A1 (CYTONICS, published 2023).

T1: MMP2 (human, UniProt P08253 110-660, limits assumed)
T1 sequence (looked up): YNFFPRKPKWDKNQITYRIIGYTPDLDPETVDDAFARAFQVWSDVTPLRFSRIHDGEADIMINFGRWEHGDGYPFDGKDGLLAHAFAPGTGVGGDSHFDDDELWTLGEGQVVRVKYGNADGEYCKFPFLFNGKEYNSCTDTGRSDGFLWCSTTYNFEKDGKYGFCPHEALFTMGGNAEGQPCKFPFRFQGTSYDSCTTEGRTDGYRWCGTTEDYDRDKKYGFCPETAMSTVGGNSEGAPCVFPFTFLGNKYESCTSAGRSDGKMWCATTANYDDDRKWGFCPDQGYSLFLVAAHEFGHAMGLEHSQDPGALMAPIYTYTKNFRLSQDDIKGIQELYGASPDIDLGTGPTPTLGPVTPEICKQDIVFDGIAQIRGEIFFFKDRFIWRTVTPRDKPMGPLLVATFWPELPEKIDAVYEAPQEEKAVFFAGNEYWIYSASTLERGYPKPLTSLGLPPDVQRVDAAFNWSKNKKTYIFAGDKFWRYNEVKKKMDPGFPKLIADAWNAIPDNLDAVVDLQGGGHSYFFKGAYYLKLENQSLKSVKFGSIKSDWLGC

T2: MMP1 (human, UniProt P03956 100-469, limits assumed)
T2 sequence (looked up): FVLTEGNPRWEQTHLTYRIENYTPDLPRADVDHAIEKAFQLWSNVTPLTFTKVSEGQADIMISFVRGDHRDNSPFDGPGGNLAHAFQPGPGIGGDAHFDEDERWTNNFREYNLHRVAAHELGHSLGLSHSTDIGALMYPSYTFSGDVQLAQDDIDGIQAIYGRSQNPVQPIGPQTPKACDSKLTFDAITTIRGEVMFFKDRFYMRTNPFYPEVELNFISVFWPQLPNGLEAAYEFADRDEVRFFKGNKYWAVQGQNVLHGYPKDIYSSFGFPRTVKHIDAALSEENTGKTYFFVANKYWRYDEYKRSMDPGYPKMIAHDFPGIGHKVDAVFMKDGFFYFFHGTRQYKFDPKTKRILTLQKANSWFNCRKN

T3: Cathepsin G (UniProt P08311 21-244)
T3 sequence (looked up): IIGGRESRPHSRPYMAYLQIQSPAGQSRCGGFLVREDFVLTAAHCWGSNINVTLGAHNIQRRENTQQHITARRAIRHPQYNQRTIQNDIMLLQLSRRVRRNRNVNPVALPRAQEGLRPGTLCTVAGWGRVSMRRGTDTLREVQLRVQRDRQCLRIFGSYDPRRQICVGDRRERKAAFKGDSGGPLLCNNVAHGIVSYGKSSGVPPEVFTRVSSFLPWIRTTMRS

T4: ADAMTS5 (human, UniProt Q9UNA0 262-622, limits assumed)
T4 sequence (looked up): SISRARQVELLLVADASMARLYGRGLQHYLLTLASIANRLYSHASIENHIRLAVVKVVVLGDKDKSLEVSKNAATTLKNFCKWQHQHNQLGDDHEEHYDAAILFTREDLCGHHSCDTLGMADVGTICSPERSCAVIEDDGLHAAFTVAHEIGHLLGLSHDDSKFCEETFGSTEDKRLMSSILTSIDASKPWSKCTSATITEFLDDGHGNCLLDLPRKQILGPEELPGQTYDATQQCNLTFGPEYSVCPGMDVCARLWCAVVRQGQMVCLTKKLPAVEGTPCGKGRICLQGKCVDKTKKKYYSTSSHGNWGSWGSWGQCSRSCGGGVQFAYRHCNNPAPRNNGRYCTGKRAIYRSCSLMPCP

T5: MMP7 (UniProt P09237 95-267, limits assumed)
T5 sequence (looked up): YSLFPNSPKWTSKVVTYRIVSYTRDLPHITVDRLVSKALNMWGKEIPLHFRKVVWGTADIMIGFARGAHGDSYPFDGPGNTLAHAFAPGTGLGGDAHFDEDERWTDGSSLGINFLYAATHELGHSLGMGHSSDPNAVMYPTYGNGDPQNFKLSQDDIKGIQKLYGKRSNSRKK

B1: Variant A2M, bait region SEQ ID NO 27 (other)
chain: SVSGKPQYMVLVPSLLHTETTEKGCVLLSYLNETVTVSASLESVRGNRSLFTDLEAENDVLHCVAFAVPKSSSNEEVMFLTVQVKGPTQEFKKRTTVMVKNEDSLVFVQTDKSIYKPGQTVKFRVVSMDENFHPLNELIPLVYIQDPKGNRIAQWQSFQLEGGLKQFSFPLSSEPFQGSYKVVVQKKSGGRTEHPFTVEEFVLPKFEVQVTVPKIITILEEEMNVSVCGLYTYGKPVPGHVTVSICRKYSDASDCHGEDSQAFCEKFSGQLNSHGCFYQQVKTKVFQLKRKEYEMKLHTEAQIQEEGTVVELTGRQSSEITRTITKLSFVKVDSHFRQGIPFFGQVRLVDGKGVPIPNKVIFIRGNEANYYSNATTDEHGLVQFSINTTNVMGTSLTVRVNYKDRSPCYGYQWVSEEHEEAHHTAYLVFSPSKSFVHLEPMSHELPCGHTQTVQAHYILNGGTLLGLKKLSFYYLIMAKGGIVRTGTHGLLVKQEDMKGHFSISIPVKSDIAPVARLLIYAVLPTGDVIGDSAKYDVENCLANKVDLSFSPSQSLPASHAHLRVTAAPQSVCALRAVDQSVLLMKPDAELSASSVYNLLPEKDLTGFPGPLNDQDDEDCINRHNVYINGITYTPVSSTNEKDMYSFLEDMGLKAFTNSKIRKPKMCPQLEQYEMHGPEGEGEGEGIPENFYGVSEDLYTASELEGRGSVEEPHTKLRKYFPETWIWDLVVVNSAGVAEVGVTVPDTITEWKAGAFCLSEDAGLGISSTASLRAFQPFFVELTMPYSVIRGEAFTLKATVLNYLPKCIRVSVQLEASPAFLAVPVEKEQAPHCICANGRQTVSWAVTPKSLGNVNFTVSAEALESQELCGTEVPSVPEHGRKDTVIKPLLVEPEGLEKETTFNSLLCPSGGEVSEELSLKLPPNVVEESARASVSVLGDILGSAMQNTQNLLQMPYGCGEQNMVLFAPNIYVLDYLNETQQLTPEIKSKAIGYLNTGYQRQLNYKHYDGSYSTFGERYGRNQGNTWLTAFVLKTFAQARAYIFIDEAHITQALIWLSQRQKDNGCFRSSGSLLNNAIKGGVEDEVTLSAYITIALLEIPLTVTHPVVRNALFCLESAWKTAQEGDHGSHVYTKALLAYAFALAGNQDKRKEVLKSLNEEAVKKDNSVHWERPQKPKAPVGHFYEPQAPSAEVEMTSYVLLAYLTAQPAPTSEDLTSATNIVKWITKQQNAQGGFSSTQDTVVALHALSKYGAATFTRTGKAAQVTIQSSGTFSSKFQVDNNNRLLLQQVSLPELPGEYSMKVTGEGCVYLQTSLKYNILPEKEEFPFALGVQTLPQTCDEPKAHTSFQISLSVSYTGSRSASNMAIVDVKMVSGFIPLKPTVKMLERSNHVSRTEVSSNHVLIYLDKVSNQTLSLFFTVLQDVPVRDLKPAIVKVYDYYETDEFAIAEYNAPCSKDLGNADYKDDDDKGASHHHHHH
B2: Variant A2M, bait region SEQ ID NO 19 (other)
chain: SVSGKPQYMVLVPSLLHTETTEKGCVLLSYLNETVTVSASLESVRGNRSLFTDLEAENDVLHCVAFAVPKSSSNEEVMFLTVQVKGPTQEFKKRTTVMVKNEDSLVFVQTDKSIYKPGQTVKFRVVSMDENFHPLNELIPLVYIQDPKGNRIAQWQSFQLEGGLKQFSFPLSSEPFQGSYKVVVQKKSGGRTEHPFTVEEFVLPKFEVQVTVPKIITILEEEMNVSVCGLYTYGKPVPGHVTVSICRKYSDASDCHGEDSQAFCEKFSGQLNSHGCFYQQVKTKVFQLKRKEYEMKLHTEAQIQEEGTVVELTGRQSSEITRTITKLSFVKVDSHFRQGIPFFGQVRLVDGKGVPIPNKVIFIRGNEANYYSNATTDEHGLVQFSINTTNVMGTSLTVRVNYKDRSPCYGYQWVSEEHEEAHHTAYLVFSPSKSFVHLEPMSHELPCGHTQTVQAHYILNGGTLLGLKKLSFYYLIMAKGGIVRTGTHGLLVKQEDMKGHFSISIPVKSDIAPVARLLIYAVLPTGDVIGDSAKYDVENCLANKVDLSFSPSQSLPASHAHLRVTAAPQSVCALRAVDQSVLLMKPDAELSASSVYNLLPEKDLTGFPGPLNDQDDEDCINRHNVYINGITYTPVSSTNEKDMYSFLEDMGLKAFTNSKIRKPKMCPQLEHGPEGEGEGEFRGVTIPENFYGVSEDLVVQISELEGRGSVEEPHTKLRKYFPETWIWDLVVVNSAGVAEVGVTVPDTITEWKAGAFCLSEDAGLGISSTASLRAFQPFFVELTMPYSVIRGEAFTLKATVLNYLPKCIRVSVQLEASPAFLAVPVEKEQAPHCICANGRQTVSWAVTPKSLGNVNFTVSAEALESQELCGTEVPSVPEHGRKDTVIKPLLVEPEGLEKETTFNSLLCPSGGEVSEELSLKLPPNVVEESARASVSVLGDILGSAMQNTQNLLQMPYGCGEQNMVLFAPNIYVLDYLNETQQLTPEIKSKAIGYLNTGYQRQLNYKHYDGSYSTFGERYGRNQGNTWLTAFVLKTFAQARAYIFIDEAHITQALIWLSQRQKDNGCFRSSGSLLNNAIKGGVEDEVTLSAYITIALLEIPLTVTHPVVRNALFCLESAWKTAQEGDHGSHVYTKALLAYAFALAGNQDKRKEVLKSLNEEAVKKDNSVHWERPQKPKAPVGHFYEPQAPSAEVEMTSYVLLAYLTAQPAPTSEDLTSATNIVKWITKQQNAQGGFSSTQDTVVALHALSKYGAATFTRTGKAAQVTIQSSGTFSSKFQVDNNNRLLLQQVSLPELPGEYSMKVTGEGCVYLQTSLKYNILPEKEEFPFALGVQTLPQTCDEPKAHTSFQISLSVSYTGSRSASNMAIVDVKMVSGFIPLKPTVKMLERSNHVSRTEVSSNHVLIYLDKVSNQTLSLFFTVLQDVPVRDLKPAIVKVYDYYETDEFAIAEYNAPCSKDLGNADYKDDDDKGASHHHHHH

Experiments:
Assay in all cases: cell-based or functional assay
MMP9 = MMP9 (human, UniProt P14780 107-707, limits assumed)
Elastase = molecular target: Elastase
MMP2 = molecular target: T1, MMP2
MMP3 = MMP3 (human, UniProt P08254 100-477, limits assumed)
MMP1 = molecular target: T2, MMP1
MMP8 = MMP8 (human, UniProt P22894 101-467, limits assumed)
Cathepsin G = molecular target: T3, Cathepsin G
MMP13 = MMP13 (human, UniProt P45452 104-471, limits assumed)
ADAMTS5 = molecular target: T4, ADAMTS5
MMP7 = molecular target: T5, MMP7

MMP8, sequence (P22894 101-467 limits assumed): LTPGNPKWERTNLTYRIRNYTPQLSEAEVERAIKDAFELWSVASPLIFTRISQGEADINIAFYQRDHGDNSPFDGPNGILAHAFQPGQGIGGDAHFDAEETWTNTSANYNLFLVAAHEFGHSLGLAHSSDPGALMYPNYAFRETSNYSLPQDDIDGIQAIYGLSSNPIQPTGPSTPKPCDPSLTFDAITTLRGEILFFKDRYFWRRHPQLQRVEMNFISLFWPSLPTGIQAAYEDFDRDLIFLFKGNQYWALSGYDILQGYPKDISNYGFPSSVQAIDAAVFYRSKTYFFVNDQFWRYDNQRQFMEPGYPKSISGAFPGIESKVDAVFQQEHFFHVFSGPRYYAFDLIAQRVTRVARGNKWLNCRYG
MMP9, sequence (P14780 107-707 limits assumed): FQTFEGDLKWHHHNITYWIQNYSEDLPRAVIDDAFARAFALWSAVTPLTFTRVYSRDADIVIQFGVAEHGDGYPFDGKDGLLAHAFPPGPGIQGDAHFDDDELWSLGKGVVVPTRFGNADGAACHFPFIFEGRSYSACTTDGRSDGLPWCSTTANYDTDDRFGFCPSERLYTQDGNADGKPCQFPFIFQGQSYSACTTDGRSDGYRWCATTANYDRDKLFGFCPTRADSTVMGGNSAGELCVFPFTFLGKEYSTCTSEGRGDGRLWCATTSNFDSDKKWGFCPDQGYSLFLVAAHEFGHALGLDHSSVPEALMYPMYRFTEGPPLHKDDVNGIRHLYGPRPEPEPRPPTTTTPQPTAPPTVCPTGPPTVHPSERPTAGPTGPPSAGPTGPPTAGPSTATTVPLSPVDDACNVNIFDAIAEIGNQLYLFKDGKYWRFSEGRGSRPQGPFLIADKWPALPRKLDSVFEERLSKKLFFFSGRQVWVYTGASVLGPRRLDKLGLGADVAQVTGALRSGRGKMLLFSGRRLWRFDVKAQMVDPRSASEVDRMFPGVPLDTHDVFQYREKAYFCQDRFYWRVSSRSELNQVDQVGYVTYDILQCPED
MMP3, sequence (P08254 100-477 limits assumed): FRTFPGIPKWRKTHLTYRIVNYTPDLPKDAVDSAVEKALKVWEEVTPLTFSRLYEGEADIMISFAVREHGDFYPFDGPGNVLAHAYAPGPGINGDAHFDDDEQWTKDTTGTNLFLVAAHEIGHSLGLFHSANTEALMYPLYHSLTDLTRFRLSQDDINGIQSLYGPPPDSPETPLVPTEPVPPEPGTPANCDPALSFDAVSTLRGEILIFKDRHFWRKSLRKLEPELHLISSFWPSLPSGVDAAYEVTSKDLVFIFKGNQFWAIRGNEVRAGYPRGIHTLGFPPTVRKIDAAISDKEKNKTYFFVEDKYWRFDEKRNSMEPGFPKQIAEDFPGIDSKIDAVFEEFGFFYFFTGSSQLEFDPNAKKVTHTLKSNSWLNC

Binder | Protease Inhibition (% of WT) (MMP9) | Protease Inhibition (% of WT) (Elastase) | Protease Inhibition (% of WT) (MMP2) | Protease Inhibition (% of WT) (MMP3) | Protease Inhibition (% of WT) (MMP1) | Protease Inhibition (% of WT) (MMP8) | Protease Inhibition (% of WT) (Cathepsin G) | Protease Inhibition (% of WT) (MMP13) | Protease Inhibition (% of WT) (ADAMTS5) | Protease Inhibition (% of WT) (MMP7)
B1 | 13 % of WT | 79 % of WT | 16 % of WT | 33 % of WT | 109 % of WT | 43 % of WT | 161 % of WT | 54 % of WT | 114 % of WT | 138 % of WT
B2 | 39 % of WT | 115 % of WT | 36 % of WT | 140 % of WT | 100 % of WT | 51 % of WT | 90 % of WT | 89 % of WT | 530 % of WT | 137 % of WT
